Measured values published in article PMC7026339, “Human bone morphogenetic protein-2 (hBMP-2) characterization by physical–chemical, immunological and biological assays” (AMB Express, 2020).

B1: CHO-derived hBMP-2 (Infuse, Medtronic), 114 amino acid glycosylated subunit (form A) (natural protein, human, UniProt P12643 283-396, looked up)
chain: QAKHKQRKRLKSSCKRHPLYVDFSDVGWNDWIVAPPGYHAFYCHGECPFPLADHLNSTNHAIVQTLVNSVNSKIPKACCVPTELSAISMLYLDENEKVVLKNYQDMVVEGCGCR
modifications: glycosylated at one site with high-mannose-type glycans
notes: human bone morphogenetic protein-2, authentic mature protein of 114 AA without initial Met (backbone 12,905 Da); Infuse is a disulfide-linked dimeric protein with two major subunit species of 114 and 131 amino acids; this molecule is the 114 AA subunit; also called 14,377 Da form; 114 AA monomer
B2: E. coli-derived methionyl-human bone morphogenetic protein-2 (met-hBMP-2, GenScript) (natural protein)
chain: MQAKHKQRKRLKSSCKRHPLYVDFSDVGWNDWIVAPPGYHAFYCHGECPFPLADHLNSTNHAIVQTLVNSVNSKIPKACCVPTELSAISMLYLDENEKVVLKNYQDMVVEGCGCR
notes: initial methionine of methionyl-hBMP-2 (printed as 'initial Met'); human bone morphogenetic protein-2, mature protein of 114 AA (theoretical backbone 12,905 Da without the initial Met; 13,036 Da with it); theoretical mass of the dimer 26,072 Da; also called E. coli-derived hBMP-2; GenScript preparation; source: bought: GenScript (from E. coli), lyophilized, reconstituted in 20 mM acetic acid

Molecular target: the molecule itself
Assay: SDS-PAGE and Western blotting under non-reducing conditions; 15% acrylamide gel, Coomassie Blue G stain; Western blot with anti-hBMP-2 rabbit IgG; non-reducing conditions; shows the disulfide-linked dimer

Protein	stoichiometry N
B1	2
B2	2
